Consider four molecules from article PMC9482650, “Quantitative fragmentomics allow affinity mapping of interactomes” (Nature Communications, 2022).

Positions count from the first letter of the chain named.

Targets include AHNAK1, Q09666; FRMPD2_2, Q68DX3; FRMPD3, Q5JV73; GORASP2, Q9H8Y8; GRID2IP_1, A4D2P6; Inadl_5, Q8NI35; LNX1_3, Q8TBB1; MAGI2_5, Q86UL8; MAST2, Q6P0Q8; PICK1, Q9NRD5; TJP1_3, Q07157.
What all share (test): holdup assay
Common to all, as to parameters: key: below the threshold = too weak to quantify, mostly under pKd 3.1 to 4

In the next assay the target is T1, DFNB31_3, Q9P202.
T1 sequence (Q9P202 811-907, limits assumed, looked up): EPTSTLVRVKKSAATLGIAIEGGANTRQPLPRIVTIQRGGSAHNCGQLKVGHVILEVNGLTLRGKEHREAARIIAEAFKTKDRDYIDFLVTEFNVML

The next assay addresses T2, GRIP1_4, Q9Y3R0.
T2 sequence (Q9Y3R0 467-571, limits assumed, looked up): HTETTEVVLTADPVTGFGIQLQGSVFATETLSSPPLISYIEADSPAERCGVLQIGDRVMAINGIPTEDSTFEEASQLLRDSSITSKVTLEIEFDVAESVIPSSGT

The target in a further assay is T3, GRIP1_7, Q9Y3R0.
T3 sequence (Q9Y3R0 999-1096, limits assumed, looked up): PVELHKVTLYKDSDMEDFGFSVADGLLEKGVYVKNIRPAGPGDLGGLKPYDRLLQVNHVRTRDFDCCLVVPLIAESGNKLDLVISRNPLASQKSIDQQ

Another assay deals with T4, LIN7A, O14910.
T4 sequence (O14910 103-200, limits assumed, looked up): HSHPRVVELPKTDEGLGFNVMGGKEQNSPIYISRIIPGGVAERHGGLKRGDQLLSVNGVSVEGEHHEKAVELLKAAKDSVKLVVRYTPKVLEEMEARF

Another assay has as its target T5, LIN7C, Q9NUP9.
T5 sequence (Q9NUP9 88-185, limits assumed, looked up): T4 sequence (O14910 103-200, limits assumed, looked up) with D13E, V20I, V40I, E42D, K77Q, D78G, S79K, A96S

For a further assay, the target named is T6, MPDZ_5, O75970.
T6 sequence (O75970 695-796, limits assumed, looked up): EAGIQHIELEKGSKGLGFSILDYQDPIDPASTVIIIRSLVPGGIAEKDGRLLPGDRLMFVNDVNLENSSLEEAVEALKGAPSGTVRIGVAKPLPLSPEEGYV

The target in another assay is T7, NHERF3_3, Q5T2W1.
T7 sequence (Q5T2W1 238-333, limits assumed, looked up): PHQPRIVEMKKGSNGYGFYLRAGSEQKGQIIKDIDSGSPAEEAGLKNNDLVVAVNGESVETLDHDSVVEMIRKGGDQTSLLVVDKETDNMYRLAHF

In the next assay the target is T8, PDZD2_2, O15018.
T8 sequence (O15018 329-429, limits assumed, looked up): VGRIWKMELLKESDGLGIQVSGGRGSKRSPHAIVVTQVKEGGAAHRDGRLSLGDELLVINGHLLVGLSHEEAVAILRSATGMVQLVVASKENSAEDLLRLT

Another assay deals with T9, PTPN13_1, Q12923.
T9 sequence (Q12923 1088-1188, limits assumed, looked up): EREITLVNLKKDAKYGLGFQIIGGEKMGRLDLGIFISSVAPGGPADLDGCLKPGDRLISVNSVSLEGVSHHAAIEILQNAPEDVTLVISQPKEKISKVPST

Another assay addresses T10, RAPGEF6, Q8TEU7.
T10 sequence (Q8TEU7 525-625, limits assumed, looked up): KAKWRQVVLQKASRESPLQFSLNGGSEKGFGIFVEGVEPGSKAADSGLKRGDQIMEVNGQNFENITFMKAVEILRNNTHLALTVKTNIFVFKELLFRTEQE

Another assay concerns the target T11, SNTB1, Q13884.
T11 sequence (Q13884 107-205, limits assumed, looked up): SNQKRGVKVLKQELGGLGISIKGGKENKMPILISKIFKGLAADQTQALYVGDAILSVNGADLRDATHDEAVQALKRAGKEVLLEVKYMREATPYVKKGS

The target in a further assay is T12, SNTG1, Q9NSN8.
T12 sequence (Q9NSN8 52-150, limits assumed, looked up): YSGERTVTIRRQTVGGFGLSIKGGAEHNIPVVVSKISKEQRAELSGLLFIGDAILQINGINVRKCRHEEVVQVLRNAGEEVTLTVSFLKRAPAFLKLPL

The target of the next assay is T13, SYNJ2BP, P57105.
T13 sequence (P57105 8-110, limits assumed, looked up): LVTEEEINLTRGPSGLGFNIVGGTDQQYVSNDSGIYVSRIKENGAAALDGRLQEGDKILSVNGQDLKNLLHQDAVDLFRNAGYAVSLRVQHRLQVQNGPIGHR

Where [1] appears, read: plain residues with an end cap or a label only (N-terminal biotin on a linker: ado-ado).
Setting [2] is: modified: phospho on T at position -1 from the C-terminal residue.
[3] abbreviates: modified: phospho on T at position -2 from the C-terminal residue.

Sequence of MAGI2_5, Q86UL8 (Q86UL8 915-1017): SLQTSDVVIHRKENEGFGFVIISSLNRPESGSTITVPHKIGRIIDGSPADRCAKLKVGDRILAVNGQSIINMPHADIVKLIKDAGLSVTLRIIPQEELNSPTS
Sequence of GRID2IP_1, A4D2P6 (A4D2P6 1-87): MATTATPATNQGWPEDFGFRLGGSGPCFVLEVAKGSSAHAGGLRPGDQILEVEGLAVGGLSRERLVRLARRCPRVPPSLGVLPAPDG
Sequence of FRMPD3, Q5JV73 (Q5JV73 12-100): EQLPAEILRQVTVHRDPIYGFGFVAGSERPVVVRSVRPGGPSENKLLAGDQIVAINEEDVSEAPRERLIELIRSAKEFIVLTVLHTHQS
Sequence of PICK1, Q9NRD5 (Q9NRD5 17-115): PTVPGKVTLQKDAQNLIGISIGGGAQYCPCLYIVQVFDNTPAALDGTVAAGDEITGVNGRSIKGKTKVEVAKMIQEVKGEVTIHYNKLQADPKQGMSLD
Sequence of AHNAK1, Q09666 (Q09666 4-100): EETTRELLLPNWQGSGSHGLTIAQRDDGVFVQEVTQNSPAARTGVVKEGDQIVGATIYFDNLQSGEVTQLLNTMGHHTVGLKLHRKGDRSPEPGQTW
Sequence of FRMPD2_2, Q68DX3 (Q68DX3 944-1038): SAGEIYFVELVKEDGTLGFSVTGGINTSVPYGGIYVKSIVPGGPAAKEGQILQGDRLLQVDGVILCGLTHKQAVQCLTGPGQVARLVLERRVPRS
Sequence of LNX1_3, Q8TBB1 (Q8TBB1 500-596): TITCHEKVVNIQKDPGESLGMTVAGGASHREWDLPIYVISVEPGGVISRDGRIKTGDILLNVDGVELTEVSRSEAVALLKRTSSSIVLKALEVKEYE
Sequence of MAST2, Q6P0Q8 (Q6P0Q8 1099-1202): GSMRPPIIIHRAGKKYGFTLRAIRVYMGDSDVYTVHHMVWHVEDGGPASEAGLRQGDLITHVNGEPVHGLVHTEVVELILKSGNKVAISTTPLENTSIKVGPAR
Sequence of Inadl_5, Q8NI35 (Q8NI35 673-780): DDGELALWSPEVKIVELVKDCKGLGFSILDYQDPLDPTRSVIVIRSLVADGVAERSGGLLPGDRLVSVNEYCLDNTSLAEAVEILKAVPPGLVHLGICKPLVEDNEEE
Sequence of TJP1_3, Q07157 (Q07157 416-512): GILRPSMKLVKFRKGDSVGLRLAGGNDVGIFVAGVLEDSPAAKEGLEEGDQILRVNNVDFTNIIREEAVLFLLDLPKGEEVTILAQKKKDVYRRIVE

As for SMLNRRTTPV [CACNG4, Q9UBN1], the pKd result is “below the threshold” with AHNAK1, Q09666 (setting [1]); “below the threshold” with DFNB31_3, Q9P202 (setting [1]); 3.55 with FRMPD2_2, Q68DX3 (setting [1]); “below the threshold” with FRMPD3, Q5JV73 (setting [1]); “below the threshold” in the assay with GORASP2, Q9H8Y8 (setting [1]); “below the threshold” in the assay with GRID2IP_1, A4D2P6 (setting [1]). The negative logarithm of the Kd (pKd) entry in the assay with GRIP1_4, Q9Y3R0 (setting [1]) was “below the threshold”; with GRIP1_7, Q9Y3R0 (setting [1]), “below the threshold”; with Inadl_5, Q8NI35 (setting [1]) it was “below the threshold”; with LIN7A, O14910 (setting [1]), “below the threshold”; with LIN7C, Q9NUP9 (setting [1]) it was “below the threshold”; in the assay with LNX1_3, Q8TBB1 (setting [1]), “below the threshold”. In addition, the pKd entry with MAGI2_5, Q86UL8 (setting [1]) is “below the threshold”; with MAST2, Q6P0Q8 (setting [1]), 4.65; with MPDZ_5, O75970 (setting [1]), “below the threshold”; with NHERF3_3, Q5T2W1 (setting [1]), “below the threshold”; with PDZD2_2, O15018 (setting [1]), “below the threshold”; with PICK1, Q9NRD5 (setting [1]) it was “below the threshold”. The pKd result with PTPN13_1, Q12923 (setting [1]) is “below the threshold”; with RAPGEF6, Q8TEU7 (setting [1]) it was “below the threshold”; with SNTB1, Q13884 (setting [1]), 4.07; in the assay with SNTG1, Q9NSN8 (setting [1]), “below the threshold”; with SYNJ2BP, P57105 (setting [1]), 5.12; in the assay with TJP1_3, Q07157 (setting [1]), “below the threshold”.
As for RRVRKLPSTTL [RPS6KA1_-1P, Q15418], the pKd was 3.52 with AHNAK1, Q09666 (setting [2]); 3.78 with DFNB31_3, Q9P202 (setting [2]); 3.47 in the assay with FRMPD2_2, Q68DX3 (setting [2]); “below the threshold” with FRMPD3, Q5JV73 (setting [2]); 3.76 with GORASP2, Q9H8Y8 (setting [2]); “below the threshold” with GRID2IP_1, A4D2P6 (setting [2]). Besides, the pKd with GRIP1_4, Q9Y3R0 (setting [2]) is 3.36; in the assay with GRIP1_7, Q9Y3R0 (setting [2]), 3.48; with Inadl_5, Q8NI35 (setting [2]), “below the threshold”; with LIN7A, O14910 (setting [2]), “below the threshold”; with LIN7C, Q9NUP9 (setting [2]), 3.56; with LNX1_3, Q8TBB1 (setting [2]), 3.39. Further, the pKd turned out to be 3.56 in the assay with MAGI2_5, Q86UL8 (setting [2]); 5.17 with MAST2, Q6P0Q8 (setting [2]); 3.5 in the assay with MPDZ_5, O75970 (setting [2]); 3.36 with NHERF3_3, Q5T2W1 (setting [2]); 4.04 with PDZD2_2, O15018 (setting [2]); 3.49 in the assay with PICK1, Q9NRD5 (setting [2]). Further, the pKd with PTPN13_1, Q12923 (setting [2]) was 3.4; with RAPGEF6, Q8TEU7 (setting [2]), 3.38; with SNTB1, Q13884 (setting [2]), 3.91; in the assay with SNTG1, Q9NSN8 (setting [2]), 3.73; with SYNJ2BP, P57105 (setting [2]), 4.48; in the assay with TJP1_3, Q07157 (setting [2]), “below the threshold”.
For RRVRKLPSTTL [RPS6KA1_-2P, Q15418], the pKd entry with AHNAK1, Q09666 (setting [3]) was “below the threshold”; with DFNB31_3, Q9P202 (setting [3]) it was “below the threshold”; in the assay with FRMPD2_2, Q68DX3 (setting [3]), “below the threshold”; with FRMPD3, Q5JV73 (setting [3]), “below the threshold”; with GORASP2, Q9H8Y8 (setting [3]) it was 3.71; in the assay with GRID2IP_1, A4D2P6 (setting [3]) it was “below the threshold”. Moreover, the negative-log Kd (pKd) entry with GRIP1_4, Q9Y3R0 (setting [3]) is “below the threshold”; with GRIP1_7, Q9Y3R0 (setting [3]), 3.63; in the assay with Inadl_5, Q8NI35 (setting [3]) it was “below the threshold”; with LIN7A, O14910 (setting [3]), “below the threshold”; with LIN7C, Q9NUP9 (setting [3]), “below the threshold”; with LNX1_3, Q8TBB1 (setting [3]), “below the threshold”. Also, the negative logarithm of the Kd (pKd) result was “below the threshold” in the assay with MAGI2_5, Q86UL8 (setting [3]); “below the threshold” with MAST2, Q6P0Q8 (setting [3]); “below the threshold” with MPDZ_5, O75970 (setting [3]); “below the threshold” with NHERF3_3, Q5T2W1 (setting [3]); “below the threshold” in the assay with PDZD2_2, O15018 (setting [3]); “below the threshold” with PICK1, Q9NRD5 (setting [3]). Also, the pKd entry in the assay with PTPN13_1, Q12923 (setting [3]) was “below the threshold”; with RAPGEF6, Q8TEU7 (setting [3]), “below the threshold”; with SNTB1, Q13884 (setting [3]), “below the threshold”; with SNTG1, Q9NSN8 (setting [3]), “below the threshold”; with SYNJ2BP, P57105 (setting [3]), “below the threshold”; in the assay with TJP1_3, Q07157 (setting [3]), “below the threshold”.
GQSVDLVFPV [AKIP1, Q9NQ31]: the pKd entry with AHNAK1, Q09666 (setting [1]) was “below the threshold”; in the assay with DFNB31_3, Q9P202 (setting [1]) it was “below the threshold”; with FRMPD2_2, Q68DX3 (setting [1]), “below the threshold”; with FRMPD3, Q5JV73 (setting [1]), 3.68; with GORASP2, Q9H8Y8 (setting [1]) it was 4.37; in the assay with GRID2IP_1, A4D2P6 (setting [1]), “below the threshold”. The pKd result in the assay with GRIP1_4, Q9Y3R0 (setting [1]) was “below the threshold”; with GRIP1_7, Q9Y3R0 (setting [1]), “below the threshold”; with Inadl_5, Q8NI35 (setting [1]) it was “below the threshold”; with LIN7A, O14910 (setting [1]), “below the threshold”; with LIN7C, Q9NUP9 (setting [1]), “below the threshold”; with LNX1_3, Q8TBB1 (setting [1]) it was 3.96. In addition, the pKd entry is “below the threshold” in the assay with MAGI2_5, Q86UL8 (setting [1]); 4.15 in the assay with MAST2, Q6P0Q8 (setting [1]); “below the threshold” with MPDZ_5, O75970 (setting [1]); “below the threshold” with NHERF3_3, Q5T2W1 (setting [1]); “below the threshold” with PDZD2_2, O15018 (setting [1]); “below the threshold” with PICK1, Q9NRD5 (setting [1]). In addition, the negative-log Kd (pKd) entry is given as “below the threshold” with PTPN13_1, Q12923 (setting [1]); “below the threshold” in the assay with RAPGEF6, Q8TEU7 (setting [1]); “below the threshold” with SNTB1, Q13884 (setting [1]); “below the threshold” in the assay with SNTG1, Q9NSN8 (setting [1]); “below the threshold” with SYNJ2BP, P57105 (setting [1]); “below the threshold” with TJP1_3, Q07157 (setting [1]).

Usually pKd stands for the negative decadic logarithm of the Kd, by convention in mol/L.
